Reference: publication PMC11209011

Assays:
Δ2 CD55 IRES GFP = assay: flow cytometry on cells
[1] = molecular target: recombinant Fc-tagged CD55 (UniProt P08174); assay: SPR; Biacore T200, 25°C; CD55-Fc immobilized on a Protein G chip, tetramers or monomers as analyte; 150mM NaCl, 0.05% BSA, 0.05% Tween-20, pH 7,5; KD calculated from kon and koff; biological duplicate
Sequence of UniProt P08174 (P08174 35-353): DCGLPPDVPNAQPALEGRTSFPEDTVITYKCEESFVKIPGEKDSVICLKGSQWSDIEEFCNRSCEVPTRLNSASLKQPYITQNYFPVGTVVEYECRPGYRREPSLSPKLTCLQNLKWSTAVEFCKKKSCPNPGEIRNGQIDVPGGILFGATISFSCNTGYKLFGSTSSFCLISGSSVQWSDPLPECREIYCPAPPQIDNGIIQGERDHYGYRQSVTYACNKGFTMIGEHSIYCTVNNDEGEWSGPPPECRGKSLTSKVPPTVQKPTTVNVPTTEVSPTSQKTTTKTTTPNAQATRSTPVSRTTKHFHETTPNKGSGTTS

## HLA-C∗07:01-VRIG tetramer (from UniProt P61769 21-119) (peptide-MHC)
Δ2 CD55 IRES GFP
  reduction of the interaction against full length CD55: 50%
[1]
  Kd: 1.4 µM
